The values that follow come from publication PMC10313822, “Disruption of ER ion homeostasis maintained by an ER anion channel CLCC1 contributes to ALS-like pathologies” (Cell Research, 2023).

The series concerns the molecule itself. The series can be described thus: SEC; Superose 6 Increase, TBS (50 mM Tris-HCl pH 7.4, 150 mM NaCl) with 0.025% DDM and 2 mM DTT; size estimated from standard markers.

B1: purified full-length mouse CLCC1, His-tagged (natural protein, UniProt Q99LI2 19-539, looked up)
chain: HDDDWIDPTDMLNYDAASGTMRKSQVRSGTSEKKEVSPDSSEAEELSDCLHRLDSLTHKVDSCEKKKMKDYESQSNPVFRRYLNKILIEAGKLGLPDENKVEMRYDAEILLSRQTLLEIQKFLSGEEWKPGALDDALSDILINFKCHDSEAWKWQFEDYFGVDPYNVFMVLLCLLCLVVLVATELWTYVRWYTQMKRIFIISFLLSLAWNWIYLYKMAFAQHQANIAGMEPFDNLCAKKMDWTGSLWEWFTSSWTYKDDPCQKYYELLIVNPIWLVPPTKALAITFTNFVTEPLKHIGKGAGEFIKALMKEIPVLLQIPVLAILALAVLSFCYGAGRSVPMLRHFGGPDREPPRALEPDDRRRQKGLDYRLHGGAGDADFSYRGPAGSIEQGPYDKMHASKRDALRQRFHSGNKSPEVLRAFDLPDTEAQEHPEVVPSHKSPIMNTNLETGELPGESTPTEYSQSAKDVSGQVPSAGKSSPTVDKAQLKTDSECSPPGGCPPSKEAAVAAHGTEPVSSPCG
notes: CLCC1, mouse, full length (NM_145543.2; 539 residues by the printed limits of the C-terminal polypeptide 355-539); The predicted signal peptide may be removed in insect cells; also called mCLCC1; WT mCLCC1; source: High Five insect cells (baculovirus), purified (Ni-NTA, Superose 6 Increase); not shown: His10, C-terminal, kept
Turning to B1, the binding result is given as “binds”.

B2: C350F mutant mouse CLCC1, purified (natural protein, UniProt Q99LI2 19-539, looked up)
chain: HDDDWIDPTDMLNYDAASGTMRKSQVRSGTSEKKEVSPDSSEAEELSDCLHRLDSLTHKVDSCEKKKMKDYESQSNPVFRRYLNKILIEAGKLGLPDENKVEMRYDAEILLSRQTLLEIQKFLSGEEWKPGALDDALSDILINFKCHDSEAWKWQFEDYFGVDPYNVFMVLLCLLCLVVLVATELWTYVRWYTQMKRIFIISFLLSLAWNWIYLYKMAFAQHQANIAGMEPFDNLCAKKMDWTGSLWEWFTSSWTYKDDPCQKYYELLIVNPIWLVPPTKALAITFTNFVTEPLKHIGKGAGEFIKALMKEIPVLLQIPVLAILALAVLSFFYGAGRSVPMLRHFGGPDREPPRALEPDDRRRQKGLDYRLHGGAGDADFSYRGPAGSIEQGPYDKMHASKRDALRQRFHSGNKSPEVLRAFDLPDTEAQEHPEVVPSHKSPIMNTNLETGELPGESTPTEYSQSAKDVSGQVPSAGKSSPTVDKAQLKTDSECSPPGGCPPSKEAAVAAHGTEPVSSPCG
notes: CLCC1, mouse, full length, with C350F; also called C350F mCLCC1; source: High Five insect cells (baculovirus), purified (Ni-NTA, Superose 6 Increase)
On to B2, for which the binding result is on record as “binds”.
